The values that follow come from article PMC7331820, “Identification of the amino acid position controlling the different enzymatic activities in walnut tyrosinase isoenzymes (jrPPO1 and jrPPO2)” (Scientific Reports, 2020).

Numbering of substitutions follows the chain as printed. Names may count otherwise.

Holding throughout (assay): photometric initial rates, Michaelis-Menten fit
Data set [1] deals with T1, jrPPO2 (Juglans regia, UniProt A0A2I4DDQ0, D361N/F398L/S401P/D582N).
T1 construct: gene LOC108979139; latent enzyme (active domain plus C-terminal domain, no transit peptide), E. coli, pGEX-6P-1, N-terminal GST tag (absent by mass)
It is filed as biochemical. The note with it: pH 6.0, 50 mM sodium phosphate, 2.5 mM SDS as activator, 25 °C. The text has this:
(§1) photometric initial rates, Michaelis-Menten fit on jrPPO2

In data set [2] the target is T2, jrPPO1 (Juglans regia, UniProt C0LU17).
T2 construct: gene PPO1; latent enzyme (active domain plus C-terminal domain, no transit peptide), expressed in E. coli from pGEX-6P-1 with N-terminal GST tag (tag absent by mass)
It is filed as biochemical. The note with it: pH 6.0, 50 mM sodium phosphate, 2.0 mM SDS as activator, 25 °C. The text has this: (§2) photometric initial rates, Michaelis-Menten fit on jrPPO1

Substrate in data set [3]: O=C(O)c1cc(O)c(O)c(O)c1
The class given is biochemical, Juglans regia. The note with it: pH 6.0, 50 mM sodium phosphate, 2.5 mM SDS as activator, 25 °C.
Text: as §1

Substrate in data set [4]: O=C(O)Cc1ccc(O)cc1
The class given is biochemical, Juglans regia. The note with it: pH 6.0, 50 mM sodium phosphate, 2.5 mM SDS as activator, 25 °C.
Text: as §1

Substrate in data set [5]: O=C1c2c(O)cc(O)cc2O[C@H](c2ccc(O)c(O)c2)[C@H]1O
It is filed as biochemical, Juglans regia. The settings on record: pH 6.0, 50 mM sodium phosphate, 2.5 mM SDS as activator, 10% DMSO, 25 °C.
Text: as §1

Substrate in data set [6]: NCCc1ccc(O)cc1
The class given is biochemical, Juglans regia. The note with it: pH 6.0, 50 mM sodium phosphate, 2.5 mM SDS as activator, 25 °C.
Text: as §1

Substrate in data set [7]: O=C(O)/C=C/c1ccc(O)cc1
The class given is biochemical, Juglans regia. The note with it: pH 6.0, 50 mM sodium phosphate, 2.5 mM SDS as activator, 25 °C.
Text: as §1

Substrate in data set [8]: O=C(O)c1ccc(O)c(O)c1
It is filed as biochemical, Juglans regia. The settings on record: pH 6.0, 50 mM sodium phosphate, 2.5 mM SDS as activator, 25 °C.
Text: as §1

Substrate in data set [9]: CCOC(=O)c1cc(O)c(O)c(O)c1
It is filed as biochemical, Juglans regia. The settings on record: pH 6.0, 50 mM sodium phosphate, 2.5 mM SDS as activator, 25 °C.
Text: as §1

Substrate in data set [10]: N[C@@H](Cc1ccc(O)c(O)c1)C(=O)O
It is filed as biochemical, Juglans regia. The settings on record: pH 6.0, 50 mM sodium phosphate, 2.5 mM SDS as activator, 25 °C.
Text: as §1

Substrate in data set [11]: NCCc1ccc(O)c(O)c1
The class given is biochemical, Juglans regia. The note with it: pH 6.0, 50 mM sodium phosphate, 2.5 mM SDS as activator, 25 °C.
Text: as §1

Substrate in data set [12]: O=C(O)/C=C/c1ccc(O)c(O)c1
It is filed as biochemical, Juglans regia. The note with it: pH 6.0, 50 mM sodium phosphate, 2.5 mM SDS as activator, 25 °C.
Text: as §1

Substrate in data set [13]: NCCc1ccc(O)c(O)c1
It is filed as biochemical, Juglans regia. The settings on record: pH 6.0, 50 mM sodium phosphate, 2.0 mM SDS as activator, 25 °C.
Text: as §2

T2 sequence (C0LU17 entry or part of it): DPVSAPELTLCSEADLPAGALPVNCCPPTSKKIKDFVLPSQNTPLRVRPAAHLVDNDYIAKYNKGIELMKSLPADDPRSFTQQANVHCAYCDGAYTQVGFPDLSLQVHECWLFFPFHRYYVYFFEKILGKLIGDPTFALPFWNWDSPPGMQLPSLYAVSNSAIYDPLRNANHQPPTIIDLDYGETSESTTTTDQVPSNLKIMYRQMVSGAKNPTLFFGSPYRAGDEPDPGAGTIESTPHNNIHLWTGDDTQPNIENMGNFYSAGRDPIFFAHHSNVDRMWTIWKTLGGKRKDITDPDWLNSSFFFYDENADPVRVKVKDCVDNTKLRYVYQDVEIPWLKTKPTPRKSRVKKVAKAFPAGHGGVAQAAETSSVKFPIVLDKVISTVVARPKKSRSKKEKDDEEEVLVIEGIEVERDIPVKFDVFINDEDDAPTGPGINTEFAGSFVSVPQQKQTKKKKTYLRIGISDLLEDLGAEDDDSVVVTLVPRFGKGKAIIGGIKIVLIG

Take `Oc1cccc(O)c1O` [compound 1, Pyrogallol]: the Km in data set [1] was found to be 1000 ± 120 µM; in [2] it was 1200 ± 130 µM.

B1: jrPPO2 (Juglans regia; D361N/D582N/F398L/S401P) (protein)
chain: APVSAPDITKCGKADFPAGAKPTNCCPPPSTKIIDFKLPTKNSPLRVRPAAHLADKEYIAKYNKAIELMKALPADDPRNFTQQANVHCAYCDGAYEQVGFPNLDLQVHNSWLFFPFHRYYLYFYEKILGKLIGDPTFALPFWNWDAPAGMQLPAMYANPKSSLYDALRNANHQPPTLMDLDYNGTDEETTSQDQLSANLSIMYRQMVSNGKNAKLFLGSAYRAGDEPDPGAGSIENIPHGPVHIWTGDNTQPNLENMGNFYSAGRDPIFFAHHSNVDRMWSIWKTLGGKRTDLTEPDWLNAGFLFYDENGQAVRVKVKDCLDTTKLGYVYQDVDLPWLKSKPTRKSKLKKVAKFFHLGHQGDVAIAAETSPSVNFPIVLDKVISTVVARPRKSRSKKEKEDEEEVLVIGAIEFDRDAPVKFDVFINDEDDSPTTRPDKTEFAGSFVNVPHKHKHGKKMNTCLRLGISDLLEDLDAENDDTIVVTLVPRYGKGLASINGIKIELLD
notes: latent enzyme (active domain plus C-terminal domain, no transit peptide), E. coli, pGEX-6P-1, N-terminal GST tag (absent by mass)
Take B1: the Km in [3] is 180 ± 40 µM; in data set [4], 4430 ± 550 µM; in [5] it was 920 ± 150 µM; in data set [6], 490 ± 110 µM; in [7] it was 940 ± 120 µM; in data set [8], 90 ± 20 µM. Further, the Km in data set [9] was 6600 ± 790 µM; in data set [10], 5660 ± 700 µM; in [11], 790 ± 170 µM; in [12], 210 ± 20 µM. The kcat in data set [3] turned out to be 2.07 ± 0.18 s⁻¹; in data set [4], 32.3 ± 2.18 s⁻¹; in data set [5] it was 19.6 ± 2.04 s⁻¹; in data set [6] it was 9.14 ± 0.83 s⁻¹; in data set [7], 0.37 ± 0.02 s⁻¹; in data set [8], 9.84 ± 0.52 s⁻¹. The kcat stood at 59.5 ± 3.89 s⁻¹ in data set [9], 132 ± 7.05 s⁻¹ in data set [10], 186 ± 19.1 s⁻¹ in [11] and 8.37 ± 0.2 s⁻¹ in [12]. The kcat/Km in [3] amounted to 11500 ± 2740 M⁻¹ s⁻¹; in data set [4], 7290 ± 1030 M⁻¹ s⁻¹; in data set [5] it was 21300 ± 4120 M⁻¹ s⁻¹; in [6], 18700 ± 4650 M⁻¹ s⁻¹; in [7] it was 390 ± 50 M⁻¹ s⁻¹; in [8], 109000 ± 25000 M⁻¹ s⁻¹. The kcat/Km in [9] was found to be 9020 ± 1220 M⁻¹ s⁻¹; in data set [10], 23300 ± 3140 M⁻¹ s⁻¹; in [11] it was 235000 ± 56100 M⁻¹ s⁻¹; in data set [12], 39900 ± 3910 M⁻¹ s⁻¹.

B2: jrPPO2 (Juglans regia; D361N/D582N/F398L/G345N/S401P) (protein)
chain: B1 chain with G240N
notes: as for B1
On to B2, for which, in data set [6], the Km stood at 210 ± 60 µM, the kcat is 10.9 ± 0.71 s⁻¹ and the kcat/Km is 51900 ± 15300 M⁻¹ s⁻¹.

B3: jrPPO1 (Juglans regia; N340G) (protein)
chain: DPVSAPELTLCSEADLPAGALPVNCCPPTSKKIKDFVLPSQNTPLRVRPAAHLVDNDYIAKYNKGIELMKSLPADDPRSFTQQANVHCAYCDGAYTQVGFPDLSLQVHECWLFFPFHRYYVYFFEKILGKLIGDPTFALPFWNWDSPPGMQLPSLYAVSNSAIYDPLRNANHQPPTIIDLDYGETSESTTTTDQVPSNLKIMYRQMVSGAKNPTLFFGSPYRAGDEPDPGAGTIESTPHGNIHLWTGDDTQPNIENMGNFYSAGRDPIFFAHHSNVDRMWTIWKTLGGKRKDITDPDWLNSSFFFYDENADPVRVKVKDCVDNTKLRYVYQDVEIPWLKTKPTPRKSRVKKVAKAFPAGHGGVAQAAETSSVKFPIVLDKVISTVVARPKKSRSKKEKDDEEEVLVIEGIEVERDIPVKFDVFINDEDDAPTGPGINTEFAGSFVSVPQQKQTKKKKTYLRIGISDLLEDLGAEDDDSVVVTLVPRFGKGKAIIGGIKIVLIG
notes: latent enzyme (active domain plus C-terminal domain, no transit peptide), expressed in E. coli from pGEX-6P-1 with N-terminal GST tag (tag absent by mass)
Consider B3, for which, in [13], the Km was 490 ± 70 µM, the kcat was found to be 300 ± 16.5 s⁻¹ and the kcat/Km came to 612000 ± 93700 M⁻¹ s⁻¹.
